The values below come from PMC8239432, “Cross-Reactive SARS-CoV-2 Neutralizing Antibodies From Deep Mining of Early Patient Responses” (Frontiers in Immunology, 2021).

What all share (conditions): both partners purified
For assay [1], the target named is T1, SARS-CoV-2 RBD-rCD4-Avi-His (SARS-CoV-2 (reference sequence), UniProt P0DTC2).
T1 construct: also called RBD-rCD4-His
The experiment in a line: SPR.

The target of assay [2] is T2, SARS CoV-2 RBD (Acro BioSystems, SPDC52H3) (SARS-CoV-2 (reference sequence), UniProt P0DTC2).
T2 construct: source: bought: Acro BioSystems
The assay is described as follows: BLI.

A further assay has as its target T3, SARS-CoV-1 RBD (SARS-CoV-1 (SARS-CoV); isolate not …, UniProt P59594).
T3 construct: also called RBD subdomain of the SARS-CoV-1 spike protein; source: Expi293F, purified (Nickel-NTA agarose)
The experiment in a line: binding assay based on time resolved fluorescence (TRF).

Assay [3] has as its target T4, MERS-CoV S1 with a His tag (MERS-CoV, isolate EMC/2012 (from …, UniProt K0BRG7)).
T4 construct: source: bought: Sino Biological
The assay is described as above.

The target of assay [4] is T5, SARS-CoV-2 RBD-rCD4-Avi-His (SARS-CoV-2, UniProt P0DTC2).
T5 construct: also called RBD-rCD4-His; monomeric RBD; source: Expi293F, purified (Nickel-NTA agarose)
The assay is described as follows: SPR. For orientation: In SPR one partner is held on a chip, and binding of the other changes the refractive index at the surface.

B1: ION_300 IgG1 (antibody, V domains shown)
VH: QVQLVQSGAEVKKPGESLKISCKGSGYSFTSYWIGWVRQMPGKGLEWMGIIYPGDSDTRYSPSFQGQVTISADKSISTAYLQWSSLKASDTAMYYCARHPSPYYYGSGSYSGGFDYWGQGTLVTVSS
VL: DIVMTQSPGTLSLSPGERATLSCRASQSVSSSYLAWYQQKPGQAPRLLIYGASTRATGIPARFSGSGSGTEFTLTISSLQSEDFAVYYCQQYDNWPLMHTFGQGTKLEIK
notes: source: ExpiCHO or Expi293, purified (protein A, SEC)
Regarding B1, in assay [1], the Kd – broadly, a measure of binding affinity in units of concentration – came to 3.4 nM; the koff (usually the first-order rate constant of dissociation) was 0.000775 s⁻¹; the kon (as a rule, the rate constant with which the complex forms) turned out to be 252000 M⁻¹ s⁻¹.

B2: ION_300 IgG1 (antibody, V domains shown)
VH: B1 VH
VL: B1 VL
Regarding B2, the binding result in assay [2] is on record as “binds”; with SARS-CoV-1 RBD it was “binds”; in assay [3] it was “no binding”.

B3: ION_360 IgG1 (antibody, V domains shown)
VH: EVQLVQSGGGLVKPGGSLRLSCAASGITVSSNYMSWVRQAPGKGLEWVSVIYSGGSTYYADSVKGRFTISRDNSKNTLYLQMNSLRAEDTAVYYCARGEGGSIVGVTSDYWGQGTLVTVSS
VL: DIQMTQSPSSLSASVGDRVTITCRASQSISRYLNWYQQKPGKAPKLLIYAASSLQSGVPSRFSGSGSETEFTLTISSLHPDDFATYYCQQSYSTLPYTFGQGTKVEIK
notes: as for B1
Regarding B3, in assay [1], the koff is 0.000279 s⁻¹ and the kon turned out to be 188000 M⁻¹ s⁻¹.

B4: ION_360 IgG1 (antibody, V domains shown)
VH: B3 VH
VL: B3 VL
Regarding B4, the affinity in assay [4], expressed as Kd, was 1.5 nM.
